Measured values from patent publication US20210238276A1 (INTEGRAL MOLECULAR, published 2021).
Changes are numbered by the printed parent chain.

What was measured:
Assay in all cases: flow cytometry, alanine-scan library in HEK-293T, with cytochalasin B
hsGLUT4 M158A = target: T1, hsGLUT4 M158A (human, UniProt P14672 1-509)
T1 sequence: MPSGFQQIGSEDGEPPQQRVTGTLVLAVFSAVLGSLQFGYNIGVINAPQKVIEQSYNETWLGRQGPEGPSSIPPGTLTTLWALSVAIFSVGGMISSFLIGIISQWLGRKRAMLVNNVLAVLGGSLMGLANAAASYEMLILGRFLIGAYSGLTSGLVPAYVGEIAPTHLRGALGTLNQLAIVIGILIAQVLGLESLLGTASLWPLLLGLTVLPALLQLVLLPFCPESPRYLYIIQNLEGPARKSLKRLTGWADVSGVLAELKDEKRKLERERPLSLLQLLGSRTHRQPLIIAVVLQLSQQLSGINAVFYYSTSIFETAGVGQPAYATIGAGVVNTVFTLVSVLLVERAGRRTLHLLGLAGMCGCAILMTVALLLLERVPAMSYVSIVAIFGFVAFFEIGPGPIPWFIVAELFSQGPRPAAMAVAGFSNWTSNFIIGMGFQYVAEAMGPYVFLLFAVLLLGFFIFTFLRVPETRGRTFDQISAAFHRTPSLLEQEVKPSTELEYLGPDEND
Method in brief: (§1)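 HEK-293T cells expressing individual GLUT4 alanine mutants were stained 48 h post-transfection with anti-GLUT4 scFv MAbs (2 μg/ml), then biotinylated secondary and streptavidin-PerCP, and read by high-throughput flow cytometry. Where used, cytochalasin B (10 uM final) was given for 30 min before and during primary antibody staining.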

hsGLUT4 I313A = target: T2, hsGLUT4 I313A (human, UniProt P14672 1-509)
T2 sequence: T1 sequence with A158M, I313A
Method in brief: as §1

hsGLUT4 I163A = target: T3, hsGLUT4 I163A (human, UniProt P14672 1-509)
T3 sequence: T1 sequence with A158M, I163A
Method in brief: as §1

hsGLUT4 N508A = target: T4, hsGLUT4 N508A (human, UniProt P14672 1-509)
T4 sequence: T1 sequence with A158M, N508A
Method in brief: as §1

B1: AB102 (Fc fusion)
scFv: ALTQPSSVSANLGGTVKITCSGGGSYGYGWYQQKSPGSAPVTVIYSNDQRPSDIPSRFSGSKSGSTATLTITGVRAEDEAIYYCGSTDSDYVGIFGAGTTLTVLGQSSRSSGGGGSSGGGGSAVTLDESGGGLQTPGGTLSLVCKASGFDFSSYATIWVRQAPGKGLEWVAGISGTGTGSSTGYAPAVKGRATISRDNGQSTVRLQLNNLRAEDTGSYFCAKSTGYGDSWIYPDSIDAWGHGTEVIVSS
notes: also called MAb AB102; not shown: Fc fragment of human IgG1, cloned in frame with the scFv
% of binding to wild type GLUT4 (hsGLUT4 M158A): 85%
% of binding to wild type GLUT4 (hsGLUT4 I313A): 15%
% of binding to wild type GLUT4 (hsGLUT4 I163A): 28%
% of binding to wild type GLUT4 (hsGLUT4 N508A): 70%
